Data on one substance can be found in patent publication US6855515.

For this assay, the target named is caspase-9 (UniProt P55211). In words: Ki printed in running text; no assay described.

In the case of “Ac-DEVD-CHO, N-(N-Ac-Asp-Glu-Val)-3-amino-4-oxobutanoic acid (peptide)”, the inhibition constant (Ki) (in general, a dissociation constant, usually derived from enzyme kinetics or from competition with a known ligand) turned out to be 60 nM.
